Target: IMP-4-type carbapenemase
Assay: indirect ELISA, plate coated with IMP-4-type carbapenemase at 0.2 ug/mL, purified antibody serially diluted from 1:1,000
Details: scale: dilution factor

| Binder | titer |
| --- | --- |
| anti-IMP-type carbapenemase antibody AH9 (antibody, V domains shown) VH: VKLQQSGAELVKPGASVKISCKASGYTFTDYNMDWVKQSHGKSLEWIGDINPNYDSTRYNQKFKGKATLTVDKSSSTAYMELRSLTSEDTAVYYCARDGRYAMDYWGQGTSVTVSS VL: DIVMTQSPSSLSVSAGEKVTLTCKSSQSLLNSGHQKNYLAWYQQKPGQPPKLLIYGASTRKSGIPDRFTGSGSGTDFTLTISSVQAEDLAVYYCQNDHRYPLTFGAGTKLELKR | > 640000 |
| anti-IMP-type carbapenemase antibody 1AA4 (antibody, V domains shown) VH: VQLVVSGGGLVNPDGSLKLSCAASGFTFSDYYMYWVRQTPEKRLEWVAIISDGGSYTYYPDSVKGRFTISRDNAKNNLYLQMSGLRSEDTAMYYCVRGSFDVWGAGTTVTVSA VL: DIVMTQSPLTLSVTLGQPASISCRSSQSLLDSGGKTYLNWFLQRPGQSPKRLIYLVSKLDSGVPDRFTGSGSGTDFTLRISRVEAEDLGIYYCFQYTHFPQCTFGGGTTLEIKR | > 640000 |
